Source: PMC12102759 (2025)

B1: PEX5 peptide 240-255 (Peroxisomal targeting signal 1 receptor), 16-mer library wild type / PEX14 Pex14 (PEX14 PEX14, residues 16-84) (parent complex)
chain 1: AEQWAAEFIQQQGTSD
chain 2: TPGSENVLPREPLIATAVKFLQNSRVRQSPLATRRAFLKKKGLTDEEIDMAFQQSGTAADEPSSLGPAT
B2: PAIP1 peptide 124-139 (Polyadenylate-binding protein-interacting protein 1), 16-mer library wild type / PABPC1 PABC (PABPC1 PABC domain, residues 544-623) (parent complex)
chain 1: LMSKLSVNAPEFYPSG
chain 2: PLTASMLASAPPQEQKQMLGERLFPLIQAMHPTLAGKITGMLLEIDNSELLHMLESPESLRSKVDEAVAVLQAHQAKEAA

Variants of: B1
Assay: proteomic peptide phage display deep mutational scan (ProP-PD DMS): M13 P8 16-mer library selected against immobilised GST-tagged bait for four days (rounds), NGS of the eluted pools per day and pseudo-replica; bait immobilised on MaxiSorp plates (10 µg), library pre-cleared on GST, 2 h binding at 4 °C, five washes; one round per day, days 1-4; value from days 2 and 3

Row | Variant | screen value
1 | chain 1 A5W | 0.000742 average fractional NGS count over selection days 2 and 3 (reads of this peptide / all reads for the bait, averaged over …
2 | chain 1 A5L | 0.00177 average fractional NGS count over selection days 2 and 3 (reads of this peptide / all reads for the bait, averaged over …
3 | chain 1 T14I | 0.00075 average fractional NGS count over selection days 2 and 3 (reads of this peptide / all reads for the bait, averaged over …
4 | chain 1 T14A | 0.00163 average fractional NGS count over selection days 2 and 3 (reads of this peptide / all reads for the bait, averaged over …
5 | chain 1 A1R | 0.000918 average fractional NGS count over selection days 2 and 3 (reads of this peptide / all reads for the bait, averaged over …
6 | chain 1 Q11S | 0.000902 average fractional NGS count over selection days 2 and 3 (reads of this peptide / all reads for the bait, averaged over …
7 | chain 1 E2M | 0.00435 average fractional NGS count over selection days 2 and 3 (reads of this peptide / all reads for the bait, averaged over …
8 | chain 1 E2H | 0.00822 average fractional NGS count over selection days 2 and 3 (reads of this peptide / all reads for the bait, averaged over …
9 | chain 1 G13P | 0.00036 average fractional NGS count over selection days 2 and 3 (reads of this peptide / all reads for the bait, averaged over …
10 | chain 1 G13S | 0.00151 average fractional NGS count over selection days 2 and 3 (reads of this peptide / all reads for the bait, averaged over …
11 | chain 1 Q10D | 0.000871 average fractional NGS count over selection days 2 and 3 (reads of this peptide / all reads for the bait, averaged over …
12 | chain 1 Q10W | 0.0034 average fractional NGS count over selection days 2 and 3 (reads of this peptide / all reads for the bait, averaged over …
13 | chain 1 Q10E | 0.0048 average fractional NGS count over selection days 2 and 3 (reads of this peptide / all reads for the bait, averaged over …
14 | chain 1 Q10I | 0.00252 average fractional NGS count over selection days 2 and 3 (reads of this peptide / all reads for the bait, averaged over …
15 | chain 1 Q10F | 0.00183 average fractional NGS count over selection days 2 and 3 (reads of this peptide / all reads for the bait, averaged over …
16 | chain 1 Q10Y | 0.00306 average fractional NGS count over selection days 2 and 3 (reads of this peptide / all reads for the bait, averaged over …
17 | chain 1 A6V | 0.00173 average fractional NGS count over selection days 2 and 3 (reads of this peptide / all reads for the bait, averaged over …

Row | Variant | screen value
18 | chain 1 A6Y | 0.00438 average fractional NGS count over selection days 2 and 3 (reads of this peptide / all reads for the bait, averaged over …
19 | chain 1 I9W | 0.00339 average fractional NGS count over selection days 2 and 3 (reads of this peptide / all reads for the bait, averaged over …
20 | chain 1 I9G | 0.000546 average fractional NGS count over selection days 2 and 3 (reads of this peptide / all reads for the bait, averaged over …
21 | chain 1 I9F | 0.00108 average fractional NGS count over selection days 2 and 3 (reads of this peptide / all reads for the bait, averaged over …
22 | chain 1 F8W | 0.00184 average fractional NGS count over selection days 2 and 3 (reads of this peptide / all reads for the bait, averaged over …
23 | chain 1 Q12P | 0.00104 average fractional NGS count over selection days 2 and 3 (reads of this peptide / all reads for the bait, averaged over …
24 | chain 1 Q12I | 0.00133 average fractional NGS count over selection days 2 and 3 (reads of this peptide / all reads for the bait, averaged over …
25 | chain 1 Q12M | 0.000477 average fractional NGS count over selection days 2 and 3 (reads of this peptide / all reads for the bait, averaged over …
26 | chain 1 E7Y | 0.00419 average fractional NGS count over selection days 2 and 3 (reads of this peptide / all reads for the bait, averaged over …
27 | chain 1 E7A | 0.00276 average fractional NGS count over selection days 2 and 3 (reads of this peptide / all reads for the bait, averaged over …
28 | chain 1 E7G | 0.00104 average fractional NGS count over selection days 2 and 3 (reads of this peptide / all reads for the bait, averaged over …
29 | chain 1 S15V | 0.000997 average fractional NGS count over selection days 2 and 3 (reads of this peptide / all reads for the bait, averaged over …
30 | chain 1 S15Y | 0.000382 average fractional NGS count over selection days 2 and 3 (reads of this peptide / all reads for the bait, averaged over …
31 | chain 1 Q3G | 0.000648 average fractional NGS count over selection days 2 and 3 (reads of this peptide / all reads for the bait, averaged over …
32 | chain 1 Q3L | 0.00235 average fractional NGS count over selection days 2 and 3 (reads of this peptide / all reads for the bait, averaged over …
33 | chain 1 Q3D | 0.000539 average fractional NGS count over selection days 2 and 3 (reads of this peptide / all reads for the bait, averaged over …

Variants of: B2
Assay: as above

Row | Variant | screen value
34 | chain 1 S15V | 0.00767 average fractional NGS count over selection days 2 and 3 (reads of this peptide / all reads for the bait, averaged over …
35 | chain 1 S15K | 0.000858 average fractional NGS count over selection days 2 and 3 (reads of this peptide / all reads for the bait, averaged over …
36 | chain 1 S15T | 0.000722 average fractional NGS count over selection days 2 and 3 (reads of this peptide / all reads for the bait, averaged over …
37 | chain 1 S15I | 0.000837 average fractional NGS count over selection days 2 and 3 (reads of this peptide / all reads for the bait, averaged over …
38 | chain 1 S15Q | 0.000451 average fractional NGS count over selection days 2 and 3 (reads of this peptide / all reads for the bait, averaged over …
39 | chain 1 S15H | 0.0055 average fractional NGS count over selection days 2 and 3 (reads of this peptide / all reads for the bait, averaged over …
40 | chain 1 S15W | 0.000557 average fractional NGS count over selection days 2 and 3 (reads of this peptide / all reads for the bait, averaged over …
41 | chain 1 S15F | 0.00282 average fractional NGS count over selection days 2 and 3 (reads of this peptide / all reads for the bait, averaged over …
42 | chain 1 S15P | 0.000374 average fractional NGS count over selection days 2 and 3 (reads of this peptide / all reads for the bait, averaged over …
43 | chain 1 S15Y | 0.00169 average fractional NGS count over selection days 2 and 3 (reads of this peptide / all reads for the bait, averaged over …
44 | chain 1 S15A | 0.00144 average fractional NGS count over selection days 2 and 3 (reads of this peptide / all reads for the bait, averaged over …
45 | chain 1 S15D | 0.00256 average fractional NGS count over selection days 2 and 3 (reads of this peptide / all reads for the bait, averaged over …
46 | chain 1 S15E | 0.0098 average fractional NGS count over selection days 2 and 3 (reads of this peptide / all reads for the bait, averaged over …
47 | chain 1 S15M | 0.00153 average fractional NGS count over selection days 2 and 3 (reads of this peptide / all reads for the bait, averaged over …
48 | chain 1 S15G | 0.00184 average fractional NGS count over selection days 2 and 3 (reads of this peptide / all reads for the bait, averaged over …
49 | chain 1 S15R | 0.00163 average fractional NGS count over selection days 2 and 3 (reads of this peptide / all reads for the bait, averaged over …
50 | chain 1 P14M | 0.000928 average fractional NGS count over selection days 2 and 3 (reads of this peptide / all reads for the bait, averaged over …
51 | chain 1 P14W | 0.000356 average fractional NGS count over selection days 2 and 3 (reads of this peptide / all reads for the bait, averaged over …
52 | chain 1 P14V | 0.000836 average fractional NGS count over selection days 2 and 3 (reads of this peptide / all reads for the bait, averaged over …
53 | chain 1 P14A | 0.0008 average fractional NGS count over selection days 2 and 3 (reads of this peptide / all reads for the bait, averaged over …
54 | chain 1 P14R | 0.00035 average fractional NGS count over selection days 2 and 3 (reads of this peptide / all reads for the bait, averaged over …

Row | Variant | screen value
55 | chain 1 N8F | 0.00423 average fractional NGS count over selection days 2 and 3 (reads of this peptide / all reads for the bait, averaged over …
56 | chain 1 N8W | 0.000471 average fractional NGS count over selection days 2 and 3 (reads of this peptide / all reads for the bait, averaged over …
57 | chain 1 N8M | 0.000551 average fractional NGS count over selection days 2 and 3 (reads of this peptide / all reads for the bait, averaged over …
58 | chain 1 N8A | 0.000206 average fractional NGS count over selection days 2 and 3 (reads of this peptide / all reads for the bait, averaged over …
59 | chain 1 N8Y | 0.000292 average fractional NGS count over selection days 2 and 3 (reads of this peptide / all reads for the bait, averaged over …
60 | chain 1 N8T | 0.00351 average fractional NGS count over selection days 2 and 3 (reads of this peptide / all reads for the bait, averaged over …
61 | chain 1 N8L | 0.00116 average fractional NGS count over selection days 2 and 3 (reads of this peptide / all reads for the bait, averaged over …
62 | chain 1 N8S | 0.00131 average fractional NGS count over selection days 2 and 3 (reads of this peptide / all reads for the bait, averaged over …
63 | chain 1 E11S | 0.00171 average fractional NGS count over selection days 2 and 3 (reads of this peptide / all reads for the bait, averaged over …
64 | chain 1 E11I | 0.000759 average fractional NGS count over selection days 2 and 3 (reads of this peptide / all reads for the bait, averaged over …
65 | chain 1 E11T | 0.000925 average fractional NGS count over selection days 2 and 3 (reads of this peptide / all reads for the bait, averaged over …
66 | chain 1 E11V | 0.00325 average fractional NGS count over selection days 2 and 3 (reads of this peptide / all reads for the bait, averaged over …
67 | chain 1 E11P | 0.000423 average fractional NGS count over selection days 2 and 3 (reads of this peptide / all reads for the bait, averaged over …
68 | chain 1 E11M | 0.000642 average fractional NGS count over selection days 2 and 3 (reads of this peptide / all reads for the bait, averaged over …
69 | chain 1 E11A | 0.00172 average fractional NGS count over selection days 2 and 3 (reads of this peptide / all reads for the bait, averaged over …
70 | chain 1 E11Y | 0.000125 average fractional NGS count over selection days 2 and 3 (reads of this peptide / all reads for the bait, averaged over …
71 | chain 1 V7H | 0.00381 average fractional NGS count over selection days 2 and 3 (reads of this peptide / all reads for the bait, averaged over …
72 | chain 1 V7S | 0.00035 average fractional NGS count over selection days 2 and 3 (reads of this peptide / all reads for the bait, averaged over …
73 | chain 1 V7Y | 0.000349 average fractional NGS count over selection days 2 and 3 (reads of this peptide / all reads for the bait, averaged over …
74 | chain 1 V7P | 0.00145 average fractional NGS count over selection days 2 and 3 (reads of this peptide / all reads for the bait, averaged over …
75 | chain 1 S6T | 0.0012 average fractional NGS count over selection days 2 and 3 (reads of this peptide / all reads for the bait, averaged over …
